According to the Human Domainome abundance scans (Beltran et al. 2025):
± gives the uncertainty stated by the source.

B1: Peripheral plasma membrane protein CASK, residues 488 to 569; numbered along this chain, O14936 (parent)
chain: VRLVQFQKNTDEPMGITLKMNELNHCIVARIMHGGMIHRQGTLHVGDEIREINGISVANQTVEQLQKMLREMRGSITFKIVP

Variants of: B1
Experiment: abundance fitness (aPCA) (normalised: wild type 0, dead -1); higher = more abundant; growth selection in yeast, the domain comes from the species named
Conditions: Homo sapiens

L43D and L43H are within error of each other in abundance fitness: -1.04 ± 0.11 for the first, -0.97 ± 0.16 for the second.

L43Y and L43A are within error of each other in abundance fitness: -0.733 ± 0.11 for the first, -0.722 ± 0.04 for the second.

Going from L43C to L43K, the abundance fitness falls from -0.308 ± 0.038 to -0.99 ± 0.09.

L43T and L43W are within error of each other in abundance fitness: -0.76 ± 0.06 for the first, -0.662 ± 0.041 for the second.

L43V and R30D are within error of each other in abundance fitness: -0.021 ± 0.024 for the first, -0.012 ± 0.063 for the second.

R30F and R30Q are within error of each other in abundance fitness: -0.083 ± 0.1 for the first, -0.013 ± 0.045 for the second.

R30E and R30K are within error of each other in abundance fitness: 0.027 ± 0.036 for the first, 0.069 ± 0.047 for the second.

Going from R30I to R30P, the abundance fitness falls from -0.372 ± 0.087 to -1.11 ± 0.23.

First: R30Y
Second: R30L
The abundance fitness of the first is higher: 0.015 ± 0.092 for the first, -0.283 ± 0.035 for the second.

Going from R30G to R30M, the abundance fitness falls from -0.005 ± 0.024 to -0.112 ± 0.046.

R30W and R30C are within error of each other in abundance fitness: -0.114 ± 0.034 for the first, -0.055 ± 0.062 for the second.

R30S and R30H are within error of each other in abundance fitness: -0.007 ± 0.033 for the first, 0.037 ± 0.057 for the second.

R30A and R30N are within error of each other in abundance fitness: 0.008 ± 0.034 for the first, 0.012 ± 0.063 for the second.

First: R30V
Second: T42S
The abundance fitness of the first is lower: -0.163 ± 0.032 for the first, 0.005 ± 0.024 for the second.

Compared with T42Y, T42P is lower in abundance fitness: -0.076 ± 0.037 for the first, -0.336 ± 0.033 for the second.

First: T42R
Second: T42K
The abundance fitness of the first is lower: -0.038 ± 0.02 for the first, 0.025 ± 0.031 for the second.

T42A and T42L are within error of each other in abundance fitness: 0.005 ± 0.024 for the first, -0.003 ± 0.024 for the second.

T42V and T42E are within error of each other in abundance fitness: -0.019 ± 0.023 for the first, 0.012 ± 0.026 for the second.

T42H and T42D are within error of each other in abundance fitness: -0.065 ± 0.045 for the first, -0.007 ± 0.032 for the second.

T42G and T42C are within error of each other in abundance fitness: 0.005 ± 0.02 for the first, -0.025 ± 0.031 for the second.

T42Q and T42N are within error of each other in abundance fitness: 0.003 ± 0.031 for the first, -0.039 ± 0.046 for the second.

T42F and T42M are within error of each other in abundance fitness: -0.021 ± 0.037 for the first, 0.01 ± 0.032 for the second.

T42W and G34M are within error of each other in abundance fitness: -0.246 ± 0.027 for the first, -0.259 ± 0.057 for the second.

Compared with G34N, G34F is lower in abundance fitness: -0.016 ± 0.1 for the first, -0.385 ± 0.096 for the second.

First: G34P
Second: G34Q
The abundance fitness of the first is lower: -0.373 ± 0.06 for the first, -0.151 ± 0.057 for the second.

Compared with G34T, G34C is lower in abundance fitness: -0.126 ± 0.054 for the first, -0.252 ± 0.064 for the second.

G34K and G34H are within error of each other in abundance fitness: -0.177 ± 0.064 for the first, -0.052 ± 0.085 for the second.

G34A and G34R are within error of each other in abundance fitness: -0.247 ± 0.041 for the first, -0.194 ± 0.035 for the second.

First: G34D
Second: G34Y
The abundance fitness of the first is higher: -0.032 ± 0.051 for the first, -0.489 ± 0.14 for the second.

Going from G34I to G34L, the abundance fitness rises from -0.478 ± 0.1 to -0.261 ± 0.042.

First: G34V
Second: V28W
The abundance fitness of the first is higher: -0.447 ± 0.042 for the first, -0.931 ± 0.06 for the second.

Compared with V28Y, G41V is higher in abundance fitness: -0.779 ± 0.11 for the first, -0.288 ± 0.025 for the second.

G41Q and G41D are within error of each other in abundance fitness: -0.113 ± 0.034 for the first, -0.065 ± 0.033 for the second.

Going from G41E to G41F, the abundance fitness falls from -0.1 ± 0.028 to -0.618 ± 0.061.

G41A and G41K are within error of each other in abundance fitness: -0.083 ± 0.024 for the first, -0.1 ± 0.032 for the second.

Going from G41I to G41R, the abundance fitness rises from -0.55 ± 0.069 to -0.127 ± 0.021.

Going from G41M to G41P, the abundance fitness falls from -0.233 ± 0.036 to -0.541 ± 0.047.

Going from G41W to G41S, the abundance fitness rises from -0.829 ± 0.048 to -0.098 ± 0.025.

Going from G41T to G41L, the abundance fitness falls from -0.033 ± 0.03 to -0.424 ± 0.029.

Going from G41Y to G41C, the abundance fitness rises from -0.639 ± 0.08 to -0.137 ± 0.031.

G41H and G41N are within error of each other in abundance fitness: -0.07 ± 0.043 for the first, -0.072 ± 0.039 for the second.

Compared with A29G, A29F is lower in abundance fitness: -0.08 ± 0.027 for the first, -0.362 ± 0.13 for the second.

A29H and A29E are within error of each other in abundance fitness: -0.013 ± 0.078 for the first, 0.003 ± 0.038 for the second.

A29T and A29S are within error of each other in abundance fitness: -0.069 ± 0.054 for the first, -0.051 ± 0.038 for the second.

A29Y and A29R are within error of each other in abundance fitness: -0.198 ± 0.11 for the first, -0.097 ± 0.03 for the second.

Compared with A29V, A29C is lower in abundance fitness: -0.11 ± 0.034 for the first, -0.279 ± 0.064 for the second.

First: A29I
Second: A29P
The abundance fitness of the first is higher: -0.115 ± 0.066 for the first, -0.936 ± 0.15 for the second.

A29W and A29M are within error of each other in abundance fitness: -0.068 ± 0.037 for the first, -0.057 ± 0.047 for the second.

Going from A29N to A29Q, the abundance fitness rises from -0.201 ± 0.087 to -0.008 ± 0.044.

First: A29K
Second: A29L
The abundance fitness of the first is higher: -0.059 ± 0.043 for the first, -0.188 ± 0.041 for the second.

V45T and V45L are within error of each other in abundance fitness: 0.022 ± 0.075 for the first, -0.061 ± 0.05 for the second.

First: V45C
Second: V45W
The abundance fitness of the first is higher: -0.128 ± 0.079 for the first, -0.464 ± 0.12 for the second.

First: V45F
Second: V45Q
The abundance fitness of the first is lower: -0.457 ± 0.14 for the first, -0.134 ± 0.061 for the second.

First: V45Y
Second: V45I
The abundance fitness of the first is lower: -0.665 ± 0.35 for the first, -0.046 ± 0.047 for the second.

Going from V45P to V45N, the abundance fitness falls from -0.059 ± 0.072 to -0.292 ± 0.12.

First: V45K
Second: V45A
The abundance fitness of the first is lower: -0.207 ± 0.083 for the first, -0.045 ± 0.043 for the second.

Going from V45E to V45S, the abundance fitness falls from -0.054 ± 0.046 to -0.232 ± 0.051.

V45H and V45M are within error of each other in abundance fitness: 0.016 ± 0.18 for the first, -0.025 ± 0.074 for the second.

V45R and V45D are within error of each other in abundance fitness: -0.169 ± 0.043 for the first, -0.178 ± 0.079 for the second.

V45G and D47N are within error of each other in abundance fitness: -0.548 ± 0.054 for the first, -0.497 ± 0.1 for the second.

D47L and D47I are within error of each other in abundance fitness: -0.878 ± 0.13 for the first, -0.694 ± 0.36 for the second.

D47K and D47V are within error of each other in abundance fitness: -1.04 ± 0.24 for the first, -0.859 ± 0.11 for the second.

Going from D47E to D47Y, the abundance fitness falls from -0.323 ± 0.061 to -0.832 ± 0.22.

D47R and D47T are within error of each other in abundance fitness: -0.939 ± 0.11 for the first, -0.788 ± 0.15 for the second.

D47H and D47A are within error of each other in abundance fitness: -1.03 ± 0.27 for the first, -0.708 ± 0.085 for the second.

D47C and D47S are within error of each other in abundance fitness: -0.552 ± 0.15 for the first, -0.711 ± 0.077 for the second.

G46L and G46R are within error of each other in abundance fitness: -0.638 ± 0.05 for the first, -0.669 ± 0.041 for the second.

Compared with G46I, G46H is higher in abundance fitness: -1.01 ± 0.24 for the first, -0.471 ± 0.13 for the second.

First: G46V
Second: G46Q
The abundance fitness of the first is lower: -1.04 ± 0.092 for the first, -0.61 ± 0.084 for the second.

Going from G46E to G46C, the abundance fitness falls from -0.293 ± 0.042 to -0.721 ± 0.081.

First: G46D
Second: G46Y
The abundance fitness of the first is higher: -0.22 ± 0.04 for the first, -1.02 ± 0.28 for the second.

Compared with G46T, G46S is higher in abundance fitness: -0.992 ± 0.2 for the first, -0.491 ± 0.041 for the second.

G46F and G46A are within error of each other in abundance fitness: -0.75 ± 0.17 for the first, -0.624 ± 0.045 for the second.

First: G46W
Second: G46M
The abundance fitness of the first is lower: -0.951 ± 0.092 for the first, -0.553 ± 0.076 for the second.

G46K and G46P are within error of each other in abundance fitness: -0.706 ± 0.077 for the first, -0.877 ± 0.13 for the second.

G46N and M32L are within error of each other in abundance fitness: -0.128 ± 0.072 for the first, -0.083 ± 0.038 for the second.

M32V and M32K are within error of each other in abundance fitness: 0.027 ± 0.034 for the first, 0.042 ± 0.039 for the second.

M32E and M32A are within error of each other in abundance fitness: 0.04 ± 0.037 for the first, 0.058 ± 0.035 for the second.

Going from M32I to M32G, the abundance fitness falls from 0.175 ± 0.085 to -0.093 ± 0.028.

M32T and M32D are within error of each other in abundance fitness: 0.015 ± 0.044 for the first, 0.051 ± 0.055 for the second.

M32F and M32N are within error of each other in abundance fitness: 0.086 ± 0.26 for the first, 0.062 ± 0.078 for the second.

M32W and M32Q are within error of each other in abundance fitness: -0.045 ± 0.045 for the first, 0.001 ± 0.045 for the second.

Compared with M32P, M32R is higher in abundance fitness: -0.109 ± 0.051 for the first, 0.003 ± 0.028 for the second.

M32Y showed an abundance fitness of -0.086 ± 0.072.
